Assay results published in patent US11926678B2, “Composite polypeptide having a metal binding motif and molecular construct comprising the same” (Immunwork Inc., priority 2020, dated 2024).

B1: stabilized 2-chain (scFv α CD19)-Fc-MBM-1×2 DOTA bundles: 2-chain anti-CD19 scFv-Fc fusion with MBM-1 (ACPGHA), two Mal-Peptide 2-DOTA bundles conjugated, maleimide ring opened (conjugate)
chain: EIVLTQSPAIMSASPGERVTMTCSASSGVNYMHWYQQKPGTSPRRWIYDTSKLASGVPARFSGSGSGTDYSLTISSMEPEDAATYYCHQRGSYTFGGGTKLEIKRGSTSGSGKPGSGEGSTKGQVQLVQPGAEVVKPGASVKLSCKTSGYTFTSNWMHWVKQAPGQGLEWIGEIDPSDSYTNYNQNFQGKAKLTVDKSTSTAYMEVSSLRSDDTAVYYCARGSNPYYYAMDYWGQGTSVTVSSGGGASDKTHTCPPCPAPELLGGPSVFLFPPKPKDTLMISRTPEVTCVVVDVSHEDPEVKFNWYVDGVEVHNAKTKPREEQYNSTYRVVSVLTVLHQDWLNGKDYKCKVSNKALPAPIEKTISKAKGQPREPQVYTLPPSRDELTRNQVSLTCLVKGFYPSDIAVEWESNGQPENNYKTTPPVLDSDGSFFLYSKLTVDKSRWQQGNVFSCSVMHEALHNHYTQKSLSLSPGGGGACPGHA
B2: (scFv α CD19)-Fc-MBM-1 fusion protein: scFv specific for human CD19 (from RB4v1.2) fused to IgG1.Fc, GGGG linker and MBM-1 ACPGHA; SEQ ID NO: 13 (protein)
chain: B1 chain

Tests used:
[1] = Stability with glutathione or human serum albumin, SDS-PAGE; type: in vitro ADME; conditions: 37° C., 30 days
Protocol: To evaluate the stability of the stabilized 2-chain (scFv α CD19)-Fc-MBM-1×2 DOTA bundles, the molecular constructs were placed in Tris buffer (100 mM Tris buffer at pH 7.3, 50 mM Bis-Tris buffer, and 290 mM NaCl) with glutathione or human serum albumin, and then incubated at 37° C. for 30 days.

[2] = system: CD19-expressing tumors (Raji xenograft); test: Biodistribution by tissue ELISA in CD19-expressing xenograft tumor model; type: in vivo, NOD-SCID mice; conditions: day 7 after i.v. injection
Protocol: For biodistribution analysis of the stabilized (scFv α CD19)-Fc-MBM-1×2 DOTA bundles in xenograft mouse model, the procedure set forth in Example 32 was used with some modifications.
Briefly, the mice were injected subcutaneously with 1×10^7 B-cell lymphoma Raji cells per mouse 2 to 3 weeks before the treatment. The mice were grouped into three mice per group, and were injected intravenously with about 200 μL of 6.65 μM labeled molecule.
Biodistribution of NOD-SCID mice were analyzed by tissue ELISA at 7 days after the administration of the stabilized 2-chain (scFv α CD19)-Fc-MBM-1×2 DOTA bundles and the anti-CD19 antibody. Briefly, the animals were sacrificed at day 7 after injection. Blood was hemospasia from the heart, and tissue samples from 11 organs were collected. Tissues samples were homogenized using homogenizer and analyzed further for measuring the concentration of the injected molecules by ELISA.

[3] = system: CD19-expressing tumors (Raji xenograft); test: IVIS imaging of targeting to CD19-expressing xenograft tumor; type: in vivo, NOD-SCID mice
From the text: In this Example, in vivo imaging system (IVIS) was used to investigate the targeting effect of the stabilized 2-chain (scFv α CD19)-Fc-MBM-1×2 DOTA bundles to CD19-expressing tumors in mouse xenograft model. Prior to IVIS imaging, a Dylight 680 Antibody Labeling Kit (Thermo Scientific) was used to conjugate the stabilized 2-chain (scFv α CD19)-Fc-MBM-1×2 DOTA bundles from Example 19 and the anti-CD19 antibody (RB4v1.2), according to the manufacturer's instructions.
8 to 10-week-old NOD-SCID (NOD.CB17-Prkdc^scid/JNarl) were purchased from Laboratory Animal Facility of Institute of Cellular and Organismic Biology, Academia Sinica, Taipei, Taiwan. The mice were injected intraperitoneally with 1×10^7 B-cell lymphoma Raji cells per mouse 2 weeks before the treatment. The mice were grouped into three mice per group, and were injected intravenously with about 200 μL of 6.65 μM labeled molecule. At various time points, mice were anaesthetized with isoflurane in O2 and placed in the IVIS Spectrum In Vivo Imaging System (PerkinElmer) with a supine position. […] Images were captured at indicated time points using IVIS Spectrum imager and analyzed with Living Image software.
Fluorescent images from NOD-SCID mice were captured and analyzed at 0 hour, 24 hours, 48 hours, and 72 hours after the administration of DyLight 680-conjugated proteins. […]

[4] = Examination of retro-Michael addition product, Western blot; type: in vitro ADME; conditions: 37° C., 30 days, compared with stock at 4° C.
Protocol: A further confirmation of the stability of the 2-chain (scFv α CD19)-Fc-MBM-1×2 DOTA bundles, the stabilized molecular construct was incubated with glutathione or HSA and then analyzed using Western blot.
For the western blot analysis of the stabilized samples, briefly, the samples were separated on 8% SDS-PAGE gels and transferred to a poly(vinylidene fluoride) (PVDF) membrane (Millipore). The membrane blots were blocked in PBS containing 5% BSA and 0.05% Tween 20 for 1 hour at room temperature. After washing 3 times with phosphate buffered saline tween-20 (PBST) containing PBS and 0.05% Tween-20, the blots were incubated with goat anti-human IgG.Fc antibody conjugated with horseradish peroxidase (Millipore). Then the membranes were washed 3 times with PBST, and immunoreacted bands were detected using ECL™ western blotting detection reagents (Millipore) and exposed on Fujifilm (Tokyo, Japan).

[5] = target: T1, human CD19 on human B lymphoma cell lines Ramos (Homo sapiens, UniProt P15391); test: Cell staining (FACS) binding to CD19-expressing Ramos cells; type: cell-based
T1 construct: two molecular constructs containing MBM-1 and MBM-3 on CD19-expressing Ramos cells; endogenous in cells; host or cells: Ramos (human B lymphoma cell line)
T1 sequence (P15391 20-556): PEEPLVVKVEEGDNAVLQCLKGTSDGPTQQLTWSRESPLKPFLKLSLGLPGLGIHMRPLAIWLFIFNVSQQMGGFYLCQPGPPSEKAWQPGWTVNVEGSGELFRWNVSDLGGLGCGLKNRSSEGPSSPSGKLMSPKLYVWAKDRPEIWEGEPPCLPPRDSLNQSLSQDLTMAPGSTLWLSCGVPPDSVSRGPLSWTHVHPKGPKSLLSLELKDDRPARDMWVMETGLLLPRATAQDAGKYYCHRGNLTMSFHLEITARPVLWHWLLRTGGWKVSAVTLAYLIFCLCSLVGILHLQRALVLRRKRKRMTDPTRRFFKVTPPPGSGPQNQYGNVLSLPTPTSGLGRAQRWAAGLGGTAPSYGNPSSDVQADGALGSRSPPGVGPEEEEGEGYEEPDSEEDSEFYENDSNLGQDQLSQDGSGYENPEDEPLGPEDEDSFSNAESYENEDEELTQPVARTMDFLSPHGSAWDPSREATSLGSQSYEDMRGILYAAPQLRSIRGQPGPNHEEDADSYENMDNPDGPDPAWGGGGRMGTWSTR
Protocol: (§1) Two stabilized molecular constructs, (scFv α CD19)-Fc-MBM-1×2 DOTA bundles and (scFv α CD19)-Fc-MBM-3×2 DOTA bundles, were analyzed for their ability to bind to human CD19 on human B lymphoma cell line Raji. The assay was performed by incubating 1×10^6 CD19-expressing Raji cells with 0.001 μg/ml of each construct in PBS, 1% BSA on ice for 30 minutes, using anti-CD19 antibody (RB4v1.2), (scFv α CD19)-Fc-MBM-1×2 DOTA bundles and (scFv α CD19)-Fc-MBM-3×2 DOTA bundles as positive controls. The anti-HER2 antibody (trastuzumab) was used as a negative control. The staining of cells was analyzed by FACS (FACSCanto II; BD Biosciences) using FITC-conjugated goat anti-human IgG.Fc (diluted 1:200 in PBS/BSA) (Caltag, Buckingham, UK) at 4° C. for 20 minutes in the dark.
These molecular constructs were also analyzed for their ability to bind to human CD19 on human B lymphoma cell lines Ramos. The assay was performed using the protocol similar to the one used in cell binding assay with Raji cells. The staining of Ramos cells was analyzed by FACS (FACSCanto II; BD Biosciences) using FITC-conjugated goat anti-human IgG.Fc, where anti-CD19 IgG is used as a positive control. The anti-HER2 antibody (trastuzumab) was used as a negative control. […]

[6] = Half-life in BALB/c mice after i.v. administration (serum ELISA); type: in vivo; conditions: about 200 μL of 3.33 μM protein
Protocol: The measurement of half-lives of the stabilized 2-chain (scFv α CD19)-Fc-MBM-1×2 DOTA bundles was carried out in mice after i.v. administration. The (scFv α CD19)-Fc-MBM-1×2 DOTA bundles in the serum sample was observed using ELISA. 8 to 10-week-old BALB/c mice were purchased from BioLasco, Taipei, Taiwan. Mice were grouped into three mice per group, and were injected intravenously with about 200 μL of 3.33 μM protein.

[7] = target: T2, human CD19 on human B lymphoma cell line Raji (Homo sapiens, UniProt P15391); test: Cell staining (FACS) binding to CD19-expressing Raji cells; type: cell-based; conditions: 0.001 μg/ml, on ice 30 minutes
T2 construct: incubating 1×10^6 CD19-expressing Raji cells with 0.001 μg/ml of each construct; endogenous in cells; host or cells: Raji (human B lymphoma cell line)
T2 sequence (P15391 20-556): T1 sequence (P15391 20-556)
Protocol: as §1

Molecule | stability while incubated with glutathione or human serum albumin ([1]; SDS-PAGE) | intact molecular construct still in solution without retro-Michael addition product ([1]; HSA-treated group) | intact molecular construct still in solution without retro-Michael addition product ([1]; glutathione-treated group) | targeting of CD19-expressing tumors (tissue-to-blood ratio biodistribution) [2] | penetration into tumors compared with normal organ ([3]; 24, 48 and 72 hours after i.v. injection, DyLight 680-labeled) | targeting effect to CD19-expressing tumors ([3]; mouse xenograft model) | stability while incubated with glutathione or HSA [4] | binding to Ramos cells (cell staining) [5] | half-life [6] [h] | binding to Raji cells (cell staining) [7]
B1 | satisfactory stability | approximately 90% | approximately 90% | can target CD19-expressing tumors | significantly greater | satisfactory targeting effect | satisfactory stability | bound to Ramos cells substantially positively | ~193.5 | bound to Raji cells substantially positively
B2 | – | – | – | – | – | – | – | – | ~179.6 | –
